Laboratory results from article PMC11054746, “GRPR-Antagonists Carrying DOTAGA-Chelator via Positively Charged Linkers: Perspectives for Prostate Cancer Theranostics” (Pharmaceutics, 2024).
Like-named read-outs stand apart in the source and are kept apart here.

How the values were obtained:
in vivo = experiment: in vivo; set-up: species or system BALB/C nu/nu mice; settings: BALB/C nu/nu, mouse, iv, total radioactivity; for tissue to tissue ratio at 4 h: Tumor-to-organ ratio
Procedure: (§1) All in vivo studies were performed following European guidelines on laboratory animal protection. The in vivo stability experiments were carried out in healthy male Swiss albino mice; the study protocol was approved by the Department of Agriculture and Veterinary Service of the Prefecture of Athens (protocol number #440448, 01-06-2021). The biodistribution, in vivo targeting specificity assay, and SPECT/CT imaging experiments were carried out on BALB/C nu/nu mice. The Ethics Committee for Animal Research in Uppsala (Sweden) approved the latter in vivo animal studies (permit number 00473/21). The BALB/C nu/nu mice were implanted with GRPR-positive prostate cancer xenografts by subcutaneous injection on the right hind leg of PC-3 cells suspended in PBS (7 × 10^6 cells/mouse) four weeks before the biodistribution studies.
(§2) The mice were iv injected with 40 pmol peptide (30 kBq in a total volume of 100 μL 1% bovine serum albumin (BSA) in PBS). […] At the indicated time points, mice were euthanized under anesthesia. The organs of interest were collected, weighed, and the sample radioactivity content was measured on the gamma counter. The percentage of injected activity per gram (%IA/g) of collected tumors, organs and tissues, the %IA for the remaining gastrointestinal tract and carcass, as well as the tumor-to-organ ratios (T/O) were calculated.

PC-3 xenografts = experiment: in vivo; set-up: species or system BALB/C nu/nu mice; settings: mouse; for Kidneys uptake: BALB/C nu/nu
Procedure: as §1, §2

[1] = Radiochemical stability: indium release in PBS or with EDTA excess, by iTLC; assay type: physicochemical; settings: room temperature, 0.2 M citric acid, mean ± sd, n = 3
Procedure: The radiochemical yield was analyzed with instant thin layer chromatography (iTLC) strips (Agilent Technologies, Santa Clara, CA, USA), using 0.2 M citric acid buffer as a mobile phase (Rf = 0 for the radiolabeled peptide and Rf = 1 for free indium). The iTLC results were analyzed using Cyclone® Plus Phosphorimager (PerkinElmer, Hägersten, Sweden). The radiochemical stability was determined by incubating the radiolabeled compounds with phosphate-buffered saline (PBS) or a 1000-fold molar excess of ethylenediaminetetraacetic acid (EDTA) for 1 h at room temperature. The percentage of indium release was assessed by iTLC using 0.2 M citric acid as mobile phase. Stability tests were performed in triplicate for each compound.

PC-3 cells = experiment: Cellular internalization; assay type: cell-based, human; settings: 1 nM, acid wash, mean of 3 dishes ± sd, normalized to maximum cell association at 24 h
Procedure: For the cellular internalization assay, PC-3 cells (1 × 10^6 cells/dish) were used. The cells were incubated with 1 mL (1 nM) of solution containing the radiolabeled peptide under evaluation. At the 4 h and 24 h time points, the cells were treated with an acid wash (0.2 M glycine buffer with 0.15 M NaCl and 4 M urea, pH 2) for 5 min on ice to remove the membrane-bound peptide. After collection of acid fractions, the cells were treated with 1 M NaOH for at least 30 min and the cell debris were scraped and collected. The activity content in samples was measured using the gamma counter.

human GRPR = target: T1, human GRPR (Homo sapiens, UniProt P30550); experiment: Affinity measurements in real time (LigandTracer) on PC-3 cells; assay type: binding; settings: room temperature, 1:2 fitting interaction model
T1 construct: host or cells: PC-3 human prostate adenocarcinoma cells
T1 sequence (P30550 whole entry): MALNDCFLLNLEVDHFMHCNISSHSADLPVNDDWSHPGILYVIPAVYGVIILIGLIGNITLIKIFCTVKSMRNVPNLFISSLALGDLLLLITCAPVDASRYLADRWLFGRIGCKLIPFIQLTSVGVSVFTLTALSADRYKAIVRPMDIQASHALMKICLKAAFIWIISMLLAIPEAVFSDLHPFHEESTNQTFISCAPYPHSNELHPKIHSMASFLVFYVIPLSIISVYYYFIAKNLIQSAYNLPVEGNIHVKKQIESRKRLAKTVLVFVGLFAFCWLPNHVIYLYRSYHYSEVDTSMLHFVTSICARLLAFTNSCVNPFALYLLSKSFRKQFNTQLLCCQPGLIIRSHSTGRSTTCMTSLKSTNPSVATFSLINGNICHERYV
Procedure: The association curves were recorded at 1 nM and 3 nM of the radiolabeled peptides for 300 min. After reaching the plateau, the medium containing the radioligand was replaced with fresh medium and the dissociation curve was measured for about 16 h. The obtained sensorgrams were analyzed using TracerDrawer (Ridgeview Instruments AB, Uppsala, Sweden) and the dissociation constants (KD) were calculated.

[2] = 40 pmol, Carcass (whole body) uptake
[3] = 40 pmol, GI (gastrointestinal tract, GIT) uptake

CC(C)C[C@H](NC(=O)C[C@H](O)[C@H](CC(C)C)NC(=O)[C@H](Cc1c[nH]cn1)NC(=O)CN(C)C(=O)[C@@H](NC(=O)[C@H](C)NC(=O)[C@H](Cc1c[nH]c2ccccc12)NC(=O)[C@H](CCC(N)=O)NC(=O)[C@@H](Cc1ccccc1)NC(=O)COCCOCCNC(=O)CCC(C(=O)O)N1CCN(CC(=O)O)CCN(CC(=O)O)CCN(CC(=O)O)CC1)C(C)C)C(N)=O (stereo partly drawn) [[^111In]In-AU-RM26-M1, [^111In]In-DOTAGA-PEG2-[Sar^11]RM26, metal not drawn, reference compound]
tissue uptake at 4 h (in vivo; 40 pmol, Blood uptake): 0.04 ± 0.01 %ID/g | tissue uptake at 4 h (in vivo; 40 pmol, Bone uptake): 0.05 ± 0.01 %ID/g | tissue uptake dose at 4 h (in vivo; [2]): 1.3 ± 0.5 %ID | tissue uptake dose at 4 h (in vivo; [3]): 0.9 ± 0.1 %ID | tissue uptake at 4 h (in vivo; 40 pmol, Kidneys uptake): 6.4 ± 0.6 %ID/g | tissue uptake at 4 h (in vivo; 40 pmol, Liver uptake): 0.2 ± 0.1 %ID/g | tissue uptake at 4 h (in vivo; 40 pmol, Lungs uptake): 0.08 ± 0.05 %ID/g | tissue uptake at 4 h (in vivo; 40 pmol, Muscle uptake): 0.04 ± 0.02 %ID/g | tissue uptake at 4 h (in vivo; 40 pmol, Pancreas uptake): 0.2 ± 0.1 %ID/g | tissue uptake at 4 h (in vivo; 40 pmol, Small Int uptake): 0.1 ± 0.04 %ID/g | tissue uptake at 4 h (in vivo; 40 pmol, Spleen uptake): 0.08 ± 0.02 %ID/g | tissue to tissue ratio at 4 h (in vivo; 40 pmol, Blood): 133 ± 26 | tissue to tissue ratio at 4 h (in vivo; 40 pmol, Bone): 117 ± 16 | tissue to tissue ratio at 4 h (in vivo; 40 pmol, Kidneys): 0.9 ± 0.2 | tissue to tissue ratio at 4 h (in vivo; 40 pmol, Liver): 39 ± 5 | tissue to tissue ratio at 4 h (in vivo; 40 pmol, Lungs): 81 ± 25 | tissue to tissue ratio at 4 h (in vivo; 40 pmol, Muscle): 234 ± 154 | tissue to tissue ratio at 4 h (in vivo; 40 pmol, Pancreas): 27 ± 4 | tissue to tissue ratio at 4 h (in vivo; 40 pmol, Small Int): 57 ± 7 | tissue to tissue ratio at 4 h (in vivo; 40 pmol, Spleen): 72 ± 9.5 | Kidneys uptake (PC-3 xenografts; iv, 40 pmol, 4 h): ~ 6.5 %IA/g | Tumor uptake (PC-3 xenografts; iv, 40 pmol, 4 h): 6 ± 2 %IA/g

CC(C)C[C@H](NC(=O)C[C@H](O)[C@H](CC(C)C)NC(=O)[C@H](Cc1c[nH]cn1)NC(=O)CN(C)C(=O)[C@@H](NC(=O)[C@H](C)NC(=O)[C@H](Cc1c[nH]c2ccccc12)NC(=O)[C@H](CCC(N)=O)NC(=O)[C@@H](Cc1ccccc1)NC(=O)CN1CCC(NC(=O)COCCOCCNC(=O)CCC(C(=O)O)N2CCN(CC(=O)O)CCN(CC(=O)O)CCN(CC(=O)O)CC2)CC1)C(C)C)C(N)=O (stereo partly drawn) [[^111In]In-AU-RM26-M2, metal not drawn]
released [111In]In3+, ×1000 EDTA (1 h) ([1]; 1000-fold molar excess of EDTA): 5.7 ± 0.7% (3) | released [111In]In3+, PBS ([1]; incubation in PBS, 1 h): 5.7 ± 0.2% (3) | internalized fraction at 24 h (PC-3 cells): 23 ± 2% | tissue uptake at 4 h (in vivo; 40 pmol, Blood uptake): 0.003 ± 0.002 %ID/g | tissue uptake at 24 h (in vivo; 40 pmol, Blood uptake): 0.01 ± 0.002 %ID/g | tissue uptake at 4 h (in vivo; 40 pmol, Bone uptake): 0.05 ± 0.03 %ID/g | tissue uptake at 24 h (in vivo; 40 pmol, Bone uptake): 0.04 ± 0.02 %ID/g | tissue uptake dose at 4 h (in vivo; [2]): 0.8 ± 0.1 %ID | tissue uptake dose at 24 h (in vivo; 40 pmol, Carcass uptake): 0.5 ± 0.2 %ID | tissue uptake dose at 4 h (in vivo; [3]): 0.8 ± 0.5 %ID | tissue uptake dose at 24 h (in vivo; [3]): 0.13 ± 0.03 %ID | tissue uptake at 4 h (in vivo; 40 pmol, Kidneys uptake): 5 ± 1 %ID/g | tissue uptake at 24 h (in vivo; 40 pmol, Kidneys uptake): 4.1 ± 0.4 %ID/g | tissue uptake at 4 h (in vivo; 40 pmol, Liver uptake): 0.12 ± 0.01 %ID/g | tissue uptake at 24 h (in vivo; 40 pmol, Liver uptake): 0.11 ± 0.01 %ID/g | tissue uptake at 4 h (in vivo; 40 pmol, Lungs uptake): 0.05 ± 0.01 %ID/g | tissue uptake at 24 h (in vivo; 40 pmol, Lungs uptake): 0.05 ± 0.02 %ID/g | tissue uptake at 4 h (in vivo; 40 pmol, Muscle uptake): 0.02 ± 0.01 %ID/g | tissue uptake at 24 h (in vivo; 40 pmol, Muscle uptake): 0.02 ± 0.01 %ID/g | tissue uptake at 4 h (in vivo; 40 pmol, Pancreas uptake): 0.37 ± 0.08 %ID/g | tissue uptake at 24 h (in vivo; 40 pmol, Pancreas uptake): 0.15 ± 0.03 %ID/g | tissue uptake at 4 h (in vivo; 40 pmol, Small Int uptake): 0.1 ± 0.06 %ID/g | tissue uptake at 24 h (in vivo; 40 pmol, Small Int uptake): 0.06 ± 0.03 %ID/g | tissue uptake at 4 h (in vivo; 40 pmol, Spleen uptake): 0.07 ± 0.02 %ID/g | tissue uptake at 24 h (in vivo; 40 pmol, Spleen uptake): 0.07 ± 0.01 %ID/g | tissue uptake at 4 h (in vivo; 40 pmol, Tumor uptake): 7 ± 2 %ID/g | tissue uptake at 24 h (in vivo; 40 pmol, Tumor uptake): 4.9 ± 0.7 %ID/g | tissue uptake dose at 4 h (in vivo; Carcass uptake, Block): 1 ± 0.5 %ID | tissue uptake dose at 4 h (in vivo; GI (gastrointestinal tract, GIT) uptake, Block): 0.46 ± 0.03 %ID | kidney uptake at 24 h pi retained as % of the 4 h renal value (PC-3 xenografts): > 80% | pancreas uptake at 24 h pi as % of the initial 4 h uptake (PC-3 xenografts): 40% | tumor uptake at 24 h pi as % of the 4 h value (PC-3 xenografts): 70%

CC(C)C[C@H](NC(=O)C[C@H](O)[C@H](CC(C)C)NC(=O)[C@H](Cc1c[nH]cn1)NC(=O)CN(C)C(=O)[C@@H](NC(=O)[C@H](C)NC(=O)[C@H](Cc1c[nH]c2ccccc12)NC(=O)[C@H](CCC(N)=O)NC(=O)[C@@H](Cc1ccccc1)NC(=O)[C@H](CCCNC(=N)N)NC(=O)COCCOCCNC(=O)CCC(C(=O)O)N1CCN(CC(=O)O)CCN(CC(=O)O)CCN(CC(=O)O)CC1)C(C)C)C(N)=O (stereo partly drawn) [[^111In]In-AU-RM26-M3, metal not drawn]
Kd (human GRPR; read-out: KD1): 0.245 nM | Kd (human GRPR; read-out: KD2): 1.4 nM | tissue uptake at 4 h (in vivo; 40 pmol, Blood uptake): 0.024 ± 0.002 %ID/g | tissue uptake at 4 h (in vivo; 40 pmol, Bone uptake): 0.06 ± 0.01 %ID/g | tissue uptake dose at 4 h (in vivo; [2]): 1.7 ± 0.3 %ID | tissue uptake dose at 4 h (in vivo; [3]): 1.3 ± 0.9 %ID | tissue uptake at 4 h (in vivo; 40 pmol, Kidneys uptake): 3.4 ± 0.2 %ID/g | tissue uptake at 4 h (in vivo; 40 pmol, Liver uptake): 0.17 ± 0.01 %ID/g | tissue uptake at 4 h (in vivo; 40 pmol, Lungs uptake): 0.12 ± 0.01 %ID/g | tissue uptake at 4 h (in vivo; 40 pmol, Muscle uptake): 0.03 ± 0.01 %ID/g | tissue uptake at 4 h (in vivo; 40 pmol, Pancreas uptake): 0.06 ± 0.01 %ID/g | tissue uptake at 4 h (in vivo; 40 pmol, Small Int uptake): 0.08 ± 0.03 %ID/g | tissue uptake at 4 h (in vivo; 40 pmol, Spleen uptake): 0.08 ± 0.01 %ID/g | tissue uptake at 4 h (in vivo; 40 pmol, Tumor uptake): 2.5 ± 0.6 %ID/g | tissue to tissue ratio at 4 h (in vivo; 40 pmol, Blood): 104 | tissue to tissue ratio at 4 h (in vivo; 40 pmol, Bone): 39 ± 8 | tissue to tissue ratio at 4 h (in vivo; 40 pmol, Kidneys): 0.7 ± 0.2 | tissue to tissue ratio at 4 h (in vivo; 40 pmol, Liver): 15 ± 4.5 | tissue to tissue ratio at 4 h (in vivo; 40 pmol, Lungs): 33 ± 22 | tissue to tissue ratio at 4 h (in vivo; 40 pmol, Muscle): 75 ± 18 | tissue to tissue ratio at 4 h (in vivo; 40 pmol, Pancreas): 45 ± 15 | tissue to tissue ratio at 4 h (in vivo; 40 pmol, Small Int): 35 ± 15 | tissue to tissue ratio at 4 h (in vivo; 40 pmol, Spleen): 31 ± 9 | Kidneys uptake (PC-3 xenografts; iv, 40 pmol, 4 h): ~ 3.5 %IA/g
